# In patent US20200102347A1 (AUCTUS BIOLOGIES, published 2020):
# No end group written: not given here. *: point of attachment. RhodamineB = CCN(CC)c1ccc2c(-c3ccccc3C(=O)*)c3ccc(=[N+](CC)CC)cc-3oc2c1
# T1: NativeRPtag(large)_with_Tags_and_Cys (Thermoanaerobacter tengcongensis)
# T1 construct: Unlabeled in anisotropy assays; coupled through the engineered N-terminal Cys to SulfoLink agarose or maleimide plates in column, pull-down and ELISA assays
# T1 chain: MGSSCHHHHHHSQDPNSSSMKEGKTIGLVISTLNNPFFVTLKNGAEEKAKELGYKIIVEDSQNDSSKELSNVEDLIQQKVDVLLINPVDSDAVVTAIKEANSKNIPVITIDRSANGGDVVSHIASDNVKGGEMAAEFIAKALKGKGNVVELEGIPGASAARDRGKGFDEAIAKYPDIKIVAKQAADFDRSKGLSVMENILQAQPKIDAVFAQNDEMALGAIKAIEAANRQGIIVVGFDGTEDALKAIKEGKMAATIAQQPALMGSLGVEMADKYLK
# T2: NativeRPtag small for immobilization (Thermoanaerobacter tengcongensis, C-terminal Cys (GGC) coupled to SulfoLink agarose resin)
# T2 construct: also called immobilized RPtag (small)
# T2 peptide: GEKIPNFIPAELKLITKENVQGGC
# T3: native RPtag(small) (Thermoanaerobacter tengcongensis, N-terminal rhodamine)
# T3 construct: Synthetic peptide
# T3 peptide: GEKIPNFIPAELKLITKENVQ
# T4: RPtag(small) l14a (Thermoanaerobacter tengcongensis, N-terminal rhodamine)
# T4 peptide: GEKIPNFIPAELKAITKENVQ
# T5: RPtag(small) l14k (Thermoanaerobacter tengcongensis, N-terminal rhodamine)
# T5 construct: also called L14K RPtag(small)
# T5 peptide: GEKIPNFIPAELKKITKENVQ
# T6: MaturePDGF-β_NterminalPeptide
# T6 construct: an N-terminal G was added and is left out of the numbering; also called PDGF-β peptide
# T6 peptide: RhodamineB-GSLGSLTIAEPAMIAE
# T7: RPtag(small) Nd2, Cd4 (Thermoanaerobacter tengcongensis)
# T7 peptide: RhodamineB-KIPNFIPAELKLITK
# Legend:
# [1] = target: T1, NativeRPtag(large)_with_Tags_and_Cys; test: column binding; non-complementary tagRFP fusion applied to immobilized RPtag (large), washed, photographed
# [2] = target: T2, NativeRPtag small for immobilization; test: column binding; 25 mL of 1 µM tagRFP fusion applied to immobilized RPtag (small), washed with 10 mL TNE buffer, photographed
# Procedure: After purification of the tagged proteins, each was applied to its complementary column to evaluate binding. […] Briefly, columns were first equilibrated in 20 mM Tris pH 8.0, 150 mM NaCl, 1 mM EDTA (TNE buffer), then 25 mL of 1 μM tagged protein in TNE buffer was applied to the column at a flow rate of 1 ml/min, then washed with 10 mL of TNE buffer. Columns were cleaned with 10 mL 100 mM Glycine pH 1.5 between uses.
# Briefly, columns were equilibrated in 20 mM Tris pH 8.0, 150 mM NaCl, 1 mM EDTA (TEN buffer), then 25 mL of 1 μM tagged protein in TEN buffer was applied to the column at a flow rate of 1 ml/min. Thereafter, the column was washed with 10 mL of TEN buffer, and the results recorded by photograph (FIG. 8). Columns were cleaned with 10 mL 100 mM Glycine pH 1.5 between uses.
# native RPtag(small) = target: T3, native RPtag(small); test: fluorescence anisotropy; 1 nM rhodamine RPtag small peptide, unlabeled RPtag large titrated, 1 h; 50 mM Tris pH 8.0, 0.005% Tween20; bar of Ka = 1/Kd
# Procedure: (§1) Resultant curves were fit with the equation f=y0+(ymax−y0)*(Ptot+x+Kd−sqrt((Ptot+x+Kd)\hat{ }2−4*Ptot*x))/(2*Ptot), where y0 is the baseline anisotropy, ymax is the maximum anisotropy, Ptot is the fixed concentration of labeled peptide used, x is the variable concentration of protein used, and Kd is the measured Kd. […] Buffer was 50 mM Tris pH 8.0, 0.005% tween20.
# RPtag(small) l14a = target: T4, RPtag(small) l14a; test: as above
# Procedure: as §1
# RPtag(small) l14k = target: T5, RPtag(small) l14k; test: as above
# Procedure: as §1
# [3] = target: T6, MaturePDGF-β_NterminalPeptide; test: fluorescence anisotropy; 20 nM rhodamine PDGF-β N-terminal peptide, unlabeled RPtag large variant titrated; bar of Ka = 1/Kd, left axis
# Procedure: (§2) After the incubation, fluorescence anisotropy was measured, and the resultant curves were fit with the equation f=y0+(ymax−y0)*(Ptot+x+Kd−sqrt((Ptot+x+Kd)\hat{ }2−4*Ptot*x))/(2*Ptot), where y0 is the baseline anisotropy, ymax is the maximum anisotropy, Ptot is the fixed concentration of labeled peptide used, x is the variable concentration of protein used, and Kd is the measured Kd. […] Buffer was 50 mM Tris pH 8.0, 0.005% Tween20.
# RPtag(small) Nd2, Cd4 = target: T7, RPtag(small) Nd2, Cd4; test: fluorescence anisotropy; 2 nM rhodamine Nd2Cd4, unlabeled RPtag large variant titrated; bar of Ka = 1/Kd, right axis
# Procedure: as §2
Binder,binding result [2],binding result (native RPtag(small)),binding result (RPtag(small) l14a),binding result (RPtag(small) l14k),binding result [3],"binding result (RPtag(small) Nd2, Cd4)",binding result [1]
"RPtag(large) f137d (designed binder, also called F137D RPtag(large)) MGSSCHHHHHHSQDPNSSSMKEGKTIGLVISTLNNPFFVTLKNGAEEKAKELGYKIIVEDSQNDSSKELSNVEDLIQQKVDVLLINPVDSDAVVTAIKEANSKNIPVITIDRSANGGDVVSHIASDNVKGGEMAAEDIAKALKGKGNVVELEGIPGASAARDRGKGFDEAIAKYPDIKIVAKQAADFDRSKGLSVMENILQAQPKIDAVFAQNDEMALGAIKAIEAANRQGIIVVGFDGTEDALKAIKEGKMAATIAQQPALMGSLGVEMADKYLK",–,binds,binds,binds,binds,binds,–
"f137e (designed binder, single mutant of RPtag large; also called RPtag(large) F137E) single chain: MGSSCHHHHHHSQDPNSSSMKEGKTIGLVISTLNNPFFVTLKNGAEEKAKELGYKIIVEDSQNDSSKELSNVEDLIQQKVDVLLINPVDSDAVVTAIKEANSKNIPVITIDRSANGGDVVSHIASDNVKGGEMAAEEIAKALKGKGNVVELEGIPGASAARDRGKGFDEAIAKYPDIKIVAKQAADFDRSKGLSVMENILQAQPKIDAVFAQNDEMALGAIKAIEAANRQGIIVVGFDGTEDALKAIKEGKMAATIAQQPALMGSLGVEMADKYLK",–,binds,binds,binds,binds,binds,–
"m270e (designed binder, also called RPtag(large) M270E) single chain: MGSSCHHHHHHSQDPNSSSMKEGKTIGLVISTLNNPFFVTLKNGAEEKAKELGYKIIVEDSQNDSSKELSNVEDLIQQKVDVLLINPVDSDAVVTAIKEANSKNIPVITIDRSANGGDVVSHIASDNVKGGEMAAEFIAKALKGKGNVVELEGIPGASAARDRGKGFDEAIAKYPDIKIVAKQAADFDRSKGLSVMENILQAQPKIDAVFAQNDEMALGAIKAIEAANRQGIIVVGFDGTEDALKAIKEGKMAATIAQQPALMGSLGVEEADKYLK",–,–,–,–,binds,binds,–
"m270k (designed binder, also called RPtag(large) M270K) single chain: MGSSCHHHHHHSQDPNSSSMKEGKTIGLVISTLNNPFFVTLKNGAEEKAKELGYKIIVEDSQNDSSKELSNVEDLIQQKVDVLLINPVDSDAVVTAIKEANSKNIPVITIDRSANGGDVVSHIASDNVKGGEMAAEFIAKALKGKGNVVELEGIPGASAARDRGKGFDEAIAKYPDIKIVAKQAADFDRSKGLSVMENILQAQPKIDAVFAQNDEMALGAIKAIEAANRQGIIVVGFDGTEDALKAIKEGKMAATIAQQPALMGSLGVEKADKYLK",–,–,–,–,binds,binds,–
"k129f (designed binder, also called RPtag(large) K129F) single chain: MGSSCHHHHHHSQDPNSSSMKEGKTIGLVISTLNNPFFVTLKNGAEEKAKELGYKIIVEDSQNDSSKELSNVEDLIQQKVDVLLINPVDSDAVVTAIKEANSKNIPVITIDRSANGGDVVSHIASDNVFGGEMAAEFIAKALKGKGNVVELEGIPGASAARDRGKGFDEAIAKYPDIKIVAKQAADFDRSKGLSVMENILQAQPKIDAVFAQNDEMALGAIKAIEAANRQGIIVVGFDGTEDALKAIKEGKMAATIAQQPALMGSLGVEMADKYLK",–,–,–,–,binds,binds,–
"k129h (designed binder, also called RPtag(large) K129H) single chain: MGSSCHHHHHHSQDPNSSSMKEGKTIGLVISTLNNPFFVTLKNGAEEKAKELGYKIIVEDSQNDSSKELSNVEDLIQQKVDVLLINPVDSDAVVTAIKEANSKNIPVITIDRSANGGDVVSHIASDNVHGGEMAAEFIAKALKGKGNVVELEGIPGASAARDRGKGFDEAIAKYPDIKIVAKQAADFDRSKGLSVMENILQAQPKIDAVFAQNDEMALGAIKAIEAANRQGIIVVGFDGTEDALKAIKEGKMAATIAQQPALMGSLGVEMADKYLK",–,–,–,–,binds,binds,–
"k129y (designed binder, also called RPtag(large) K129Y) single chain: MGSSCHHHHHHSQDPNSSSMKEGKTIGLVISTLNNPFFVTLKNGAEEKAKELGYKIIVEDSQNDSSKELSNVEDLIQQKVDVLLINPVDSDAVVTAIKEANSKNIPVITIDRSANGGDVVSHIASDNVYGGEMAAEFIAKALKGKGNVVELEGIPGASAARDRGKGFDEAIAKYPDIKIVAKQAADFDRSKGLSVMENILQAQPKIDAVFAQNDEMALGAIKAIEAANRQGIIVVGFDGTEDALKAIKEGKMAATIAQQPALMGSLGVEMADKYLK",–,–,–,–,binds,binds,–

# Further lines, with some results ahead:
binding result [2],binding result (native RPtag(small)),binding result (RPtag(small) l14a),binding result (RPtag(small) l14k),binding result [3],"binding result (RPtag(small) Nd2, Cd4)",Binder,binding result [1]
binds,–,–,–,–,–,"Nterminally_tagged_NativeRPtag(large)_tagRFP (other, Fusion of RPtag(large), TEV site, tagRFP and 8XHis) MGSSSQDPNSSSMKEGKTIGLVISTLNNPFFVTLKNGAEEKAKELGYKIIVEDSQNDSSKELSNVEDLIQQKVDVLLINPVDSDAVVTAIKEANSKNIPVITIDRSANGGDVVSHIASDNVKGGEMAAEFIAKALKGKGNVVELEGIPGASAARDRGKGFDEAIAKYPDIKIVAKQAADFDRSKGLSVMENILQAQPKIDAVFAQNDEMALGAIKAIEAANRQGIIVVGFDGTEDALKAIKEGKMAATIAQQPALMGSLGVEMADKYLKGSENLYFQGGSMVSKGEELIKENMHMKLYMEGTVNNHHFKCTSEGEGKPYEGTQTMRIKVVEGGPLPFAFDILATSFMYGSRTFINHTQGIPDFFKQSFPEGFTWERVTTYEDGGVLTATQDTSLQDGCLIYNVKIRGVNFPSNGPVMQKKTLGWEANTEMLYPADGGLEGRSDMALKLVGGGHLICNFKTTYRSKKPAKNLKMPGVYYVDHRLERIKEADKETYVEQHEVAVARYCDLPSKLGHKLNGSSGHHHHHHHH",no binding (tested: 1 µM (25 mL applied))
–,–,–,–,binds,binds,"k129a (designed binder, also called RPtag(large) K129A) single chain: MGSSCHHHHHHSQDPNSSSMKEGKTIGLVISTLNNPFFVTLKNGAEEKAKELGYKIIVEDSQNDSSKELSNVEDLIQQKVDVLLINPVDSDAVVTAIKEANSKNIPVITIDRSANGGDVVSHIASDNVAGGEMAAEFIAKALKGKGNVVELEGIPGASAARDRGKGFDEAIAKYPDIKIVAKQAADFDRSKGLSVMENILQAQPKIDAVFAQNDEMALGAIKAIEAANRQGIIVVGFDGTEDALKAIKEGKMAATIAQQPALMGSLGVEMADKYLK",–
–,–,–,–,binds,binds,"h122w (designed binder, also called RPtag(large) H122W) single chain: MGSSCHHHHHHSQDPNSSSMKEGKTIGLVISTLNNPFFVTLKNGAEEKAKELGYKIIVEDSQNDSSKELSNVEDLIQQKVDVLLINPVDSDAVVTAIKEANSKNIPVITIDRSANGGDVVSWIASDNVKGGEMAAEFIAKALKGKGNVVELEGIPGASAARDRGKGFDEAIAKYPDIKIVAKQAADFDRSKGLSVMENILQAQPKIDAVFAQNDEMALGAIKAIEAANRQGIIVVGFDGTEDALKAIKEGKMAATIAQQPALMGSLGVEMADKYLK",–
–,–,–,–,binds,binds,"m270n (designed binder, also called RPtag(large) M270N) single chain: MGSSCHHHHHHSQDPNSSSMKEGKTIGLVISTLNNPFFVTLKNGAEEKAKELGYKIIVEDSQNDSSKELSNVEDLIQQKVDVLLINPVDSDAVVTAIKEANSKNIPVITIDRSANGGDVVSHIASDNVKGGEMAAEFIAKALKGKGNVVELEGIPGASAARDRGKGFDEAIAKYPDIKIVAKQAADFDRSKGLSVMENILQAQPKIDAVFAQNDEMALGAIKAIEAANRQGIIVVGFDGTEDALKAIKEGKMAATIAQQPALMGSLGVENADKYLK",–
–,–,–,–,binds,binds,"m270r (designed binder, also called RPtag(large) M270R) single chain: MGSSCHHHHHHSQDPNSSSMKEGKTIGLVISTLNNPFFVTLKNGAEEKAKELGYKIIVEDSQNDSSKELSNVEDLIQQKVDVLLINPVDSDAVVTAIKEANSKNIPVITIDRSANGGDVVSHIASDNVKGGEMAAEFIAKALKGKGNVVELEGIPGASAARDRGKGFDEAIAKYPDIKIVAKQAADFDRSKGLSVMENILQAQPKIDAVFAQNDEMALGAIKAIEAANRQGIIVVGFDGTEDALKAIKEGKMAATIAQQPALMGSLGVERADKYLK",–
